Data published in PMC10615203, “The 14-3-3 protein OsGF14f interacts with OsbZIP23 and enhances its activity to confer osmotic stress tolerance in rice”.

T1: GST-OsGF14f (Oryza sativa, UniProt Q06967 1-260)
T1 sequence: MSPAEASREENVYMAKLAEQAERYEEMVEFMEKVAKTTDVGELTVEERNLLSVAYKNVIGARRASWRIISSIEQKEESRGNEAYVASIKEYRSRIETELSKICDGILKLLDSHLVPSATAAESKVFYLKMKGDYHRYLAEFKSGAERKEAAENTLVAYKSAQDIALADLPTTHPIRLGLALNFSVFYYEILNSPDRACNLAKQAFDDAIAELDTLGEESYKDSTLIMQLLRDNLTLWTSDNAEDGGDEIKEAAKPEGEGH

T2: GST-OsbZIP23 (Oryza sativa, UniProt Q6Z312)
T2 sequence: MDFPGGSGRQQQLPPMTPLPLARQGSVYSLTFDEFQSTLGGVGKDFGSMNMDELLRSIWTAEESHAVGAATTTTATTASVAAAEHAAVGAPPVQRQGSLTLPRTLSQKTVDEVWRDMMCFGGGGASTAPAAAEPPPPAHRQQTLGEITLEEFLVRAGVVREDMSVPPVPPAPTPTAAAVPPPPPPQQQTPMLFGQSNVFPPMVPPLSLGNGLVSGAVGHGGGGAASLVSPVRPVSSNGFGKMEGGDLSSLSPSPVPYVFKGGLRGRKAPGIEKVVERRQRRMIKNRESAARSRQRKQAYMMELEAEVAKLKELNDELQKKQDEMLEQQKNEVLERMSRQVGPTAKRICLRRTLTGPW

B1: OsLEA3-2 promoter probe P1 (dsDNA)
DNA 1: ACCCGAGGCACACGTGTCCACCTCACCGGGGCACGTGTCGCGCCGT
DNA 2: ACGGCGCGACACGTGCCCCGGTGAGGTGGACACGTGTGCCTCGGGT
B2: OsGF14f promoter probe (dsDNA)
DNA 1: TGGCGCCTTGCCACGTGCCCCCTCCCT
DNA 2: AGGGAGGGGGCACGTGGCAAGGCGCCA

What was measured:
GST-OsGF14f = biological target: T1, GST-OsGF14f; assay: EMSA; EMSA kit (Viagene) binding buffer (composition not given), room temperature, 20 min; 6% native PAGE; details: protein: recombinant; tags: GST (N-terminal, pGEX-4T-3); chain copies: 2; label: 5' biotin; blunt
GST-OsbZIP23 = biological target: T2, GST-OsbZIP23; assay: as above; details: protein: recombinant; tags: GST (N-terminal, pGEX-4T-3); chain copies: 2; label: 5' biotin; blunt

Binder | binding result (GST-OsGF14f) | binding result (GST-OsbZIP23)
B1 | no binding | binds
B2 | – | binds
